Assay results published in paper PMC5526994 (Nature Communications, 2017).

B1: U6_2 TATA EMSA probe (dsDNA)
DNA 1: ATTTGATTGAAGGGCTTAAAATAGGTGTGACAGTAACC
DNA 2: GGTTACTGTCACACCTATTTTAAGCCCTTCAATCAAAT
B2: U6_2 PSE probe (dsDNA)
DNA 1: CCATAAGTTATCCTAACCAAAAGATGATTTGA
DNA 2: TCAAATCATCTTTTGGTTAGGATAACTTATGG
B3: U6 promoter crystallization DNA (dsDNA)
DNA 1: TTGAAGGGCTTAAAATAGGTGTGAC
DNA 2: GGTCACACCTATTTTAAGCCCTTCAAC
B4: TBP (159-339) (domain or fragment, human, UniProt P20226 159-339, looked up)
chain: SGIVPQLQNIVSTVNLGCKLDLKTIALRARNAEYNPKRFAAVIMRIREPRTTALIFSSGKMVCTGAKSEEQSRLAARKYARVVQKLGFPAKFLDFKIQNMVGSCDVKFPIRLEGLVLTHQQFSSYEPELFPGLIYRMIKPRIVLLIFVSGKVVLTGAKVRAEIYEAFENIYPILKGFRKTT
notes: source: E. coli Rosetta (DE3)pLysS, purified (HisTrap, heparin, 3C cleavage, SEC)
B5: Bdp1SANT, human Bdp1 extended SANT domain (residues 241-396), affinity tag removed for crystallization (domain or fragment, UniProt A6H8Y1 241-396, looked up)
chain: GPLLVPRVKVAEDGSIILDEESLTVEVLRTKGPCVVEENDPIFERGSTTTYSSFRKNYYSKPWSNKETDMFFLAISMVGTDFSMIGQLFPHRARIEIKNKFKREEKTNGWRIDKAFQEKRPFDFDFFAHLLQKVLAEEEKRKQKSVKNHSLKEKKS
notes: Bdp1, human, extended SANT domain, residues 241-396; residues 286-382 are built in the electron density; Cloned into pOPINF (cleavable N-terminal His-tag); tag removed with 3C protease for crystallization; source: E. coli BL21-CodonPlus (DE3)-RIL, purified (Ni-NTA, 3C cleavage, heparin, SEC); not shown: His tag, N-terminal, cleaved
B6: Bdp1SANT, human Bdp1 extended SANT domain (residues 241-396), His-tagged (domain or fragment, UniProt A6H8Y1 241-396, looked up)
chain: B5 chain
notes: Bdp1, human, extended SANT domain, residues 241-396; The tag is kept in the pull-down (held on His SpinTrap); it tells of cleavage only for crystallization; source: E. coli BL21-CodonPlus (DE3)-RIL, purified (Ni-NTA, heparin, SEC); not shown: His tag, N-terminal, kept
B7: U6 snRNA promoter smFRET DNA (dsDNA)
DNA 1: CGGACCAAGATGATTTGATTGAAGGGCTTAAAATAGGTGTGAGAGTAACCCTTGA
DNA 2: TCAAGGGTTACTCTCACACCTATTTTAAGCCCTTCAATCAAATCATCTTGGTCCG

Columns and labels:
[1] = molecular target: T1, TBP (core);Brf2 (62-419);Bdp1SANT (Homo sapiens;Homo sapiens;Homo sapiens, UniProt P20226;Q9HAW0;A6H8Y1 159-339;62-419;241-396, ||); test: EMSA; similar affinity to longer Bdp1 constructs; EMSA: 500 mM ammonium acetate, 50 mM HEPES pH 7.9, 10% glycerol, 1 mM TCEP, 21 °C 20 min, diluted twofold (100 mM ammonium acetate, 40% glycerol) before loading; SNAPc EMSA: 500 mM NaCl, 50 mM HEPES pH 7.9, 20% glycerol, 1 mM TCEP, 21 °C; smFRET lifetimes: T78 buffer, 1 mM DTT, room temperature; settings: protein: recombinant;recombinant;recombinant; tags: His-tag cleaved (3C);N-terminal His-tag cleaved (3C);N-terminal His, cleavable; cleaved for crystallization; copies: 1;1;1; label: 5' Cy5 on strand 1; blunt
T1 sequence (Q9HAW0 62-419, one chain of several): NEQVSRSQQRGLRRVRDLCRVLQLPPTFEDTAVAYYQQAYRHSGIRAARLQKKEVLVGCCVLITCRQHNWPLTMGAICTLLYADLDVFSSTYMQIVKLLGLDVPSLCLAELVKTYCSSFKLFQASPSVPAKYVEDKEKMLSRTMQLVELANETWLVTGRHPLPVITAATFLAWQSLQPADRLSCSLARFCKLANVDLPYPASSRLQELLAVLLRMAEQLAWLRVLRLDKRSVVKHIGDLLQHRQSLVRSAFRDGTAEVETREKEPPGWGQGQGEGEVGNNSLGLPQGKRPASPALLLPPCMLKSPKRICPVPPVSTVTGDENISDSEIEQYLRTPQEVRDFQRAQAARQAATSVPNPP

TBP (core);Brf2 (62-419) [2] = molecular target: T2, TBP (core);Brf2 (62-419) (Homo sapiens;Homo sapiens, UniProt P20226;Q9HAW0 159-339;62-419, |); test: competition; 0-200x unlabelled same-sequence DNA; less stable than with Bdp1SANT; EMSA: 500 mM ammonium acetate, 50 mM HEPES pH 7.9, 10% glycerol, 1 mM TCEP, 21 °C 20 min, diluted twofold (100 mM ammonium acetate, 40% glycerol) before loading; SNAPc EMSA: 500 mM NaCl, 50 mM HEPES pH 7.9, 20% glycerol, 1 mM TCEP, 21 °C; smFRET lifetimes: T78 buffer, 1 mM DTT, room temperature; settings: protein: recombinant;recombinant; tags: His-tag cleaved (3C);N-terminal His-tag cleaved (3C); copies: 1;1; label: 5' Cy5 on strand 1; blunt
T2 sequence (Q9HAW0 62-419, one chain of several): as above

SNAPcΔ;Bdp1-WT = SNAPcΔ;Bdp1-WT (Homo sapiens?;Homo sapiens, UniProt Q5SXM2;Q92966;Q16533;O75971;A6H8Y1 1-516;1-411;1-368;1-98;1-484, |); test: EMSA; Bdp1 binding to SNAPc-DNA; EMSA: 500 mM ammonium acetate, 50 mM HEPES pH 7.9, 10% glycerol, 1 mM TCEP, 21 °C 20 min, diluted twofold (100 mM ammonium acetate, 40% glycerol) before loading; SNAPc EMSA: 500 mM NaCl, 50 mM HEPES pH 7.9, 20% glycerol, 1 mM TCEP, 21 °C; smFRET lifetimes: T78 buffer, 1 mM DTT, room temperature; settings: protein: recombinant;recombinant; tags: N-terminal Strep on SNAPc190Δ; His cleaved from SNAPc50;C-terminal His (uncleavable); copies: 1;1;1;1;1; blunt
SNAPcΔ;Bdp1SANT = SNAPcΔ;Bdp1SANT (Homo sapiens?;Homo sapiens, UniProt Q5SXM2;Q92966;Q16533;O75971;A6H8Y1 1-516;1-411;1-368;1-98;241-396, |); test: EMSA; Bdp1SANT not recruited to SNAPc-DNA; not loss of SNAPc-DNA binding; EMSA: 500 mM ammonium acetate, 50 mM HEPES pH 7.9, 10% glycerol, 1 mM TCEP, 21 °C 20 min, diluted twofold (100 mM ammonium acetate, 40% glycerol) before loading; SNAPc EMSA: 500 mM NaCl, 50 mM HEPES pH 7.9, 20% glycerol, 1 mM TCEP, 21 °C; smFRET lifetimes: T78 buffer, 1 mM DTT, room temperature; settings: protein: recombinant;recombinant; tags: N-terminal Strep on SNAPc190Δ; His cleaved from SNAPc50;N-terminal His, cleavable; cleaved for crystallization; copies: 1;1;1;1;1; blunt
Sequence of SNAPcΔ;Bdp1SANT (Q5SXM2 1-516, stated change not applied, chain 1 of 4): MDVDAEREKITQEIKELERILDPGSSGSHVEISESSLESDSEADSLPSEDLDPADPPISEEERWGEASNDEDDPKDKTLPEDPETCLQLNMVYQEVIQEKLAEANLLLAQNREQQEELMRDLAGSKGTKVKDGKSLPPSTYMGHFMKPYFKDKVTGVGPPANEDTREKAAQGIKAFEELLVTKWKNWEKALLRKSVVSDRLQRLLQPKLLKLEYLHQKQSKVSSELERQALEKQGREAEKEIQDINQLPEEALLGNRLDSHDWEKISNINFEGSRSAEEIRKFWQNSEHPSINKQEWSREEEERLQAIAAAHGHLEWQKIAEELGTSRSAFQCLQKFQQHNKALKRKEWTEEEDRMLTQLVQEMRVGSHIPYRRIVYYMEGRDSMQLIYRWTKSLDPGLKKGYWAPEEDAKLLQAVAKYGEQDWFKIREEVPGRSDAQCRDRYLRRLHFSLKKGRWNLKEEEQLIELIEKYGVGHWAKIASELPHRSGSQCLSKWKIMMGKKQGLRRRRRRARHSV
Sequence of SNAPcΔ;Bdp1SANT (Q92966 whole entry, stated change not applied, chain 2 of 4): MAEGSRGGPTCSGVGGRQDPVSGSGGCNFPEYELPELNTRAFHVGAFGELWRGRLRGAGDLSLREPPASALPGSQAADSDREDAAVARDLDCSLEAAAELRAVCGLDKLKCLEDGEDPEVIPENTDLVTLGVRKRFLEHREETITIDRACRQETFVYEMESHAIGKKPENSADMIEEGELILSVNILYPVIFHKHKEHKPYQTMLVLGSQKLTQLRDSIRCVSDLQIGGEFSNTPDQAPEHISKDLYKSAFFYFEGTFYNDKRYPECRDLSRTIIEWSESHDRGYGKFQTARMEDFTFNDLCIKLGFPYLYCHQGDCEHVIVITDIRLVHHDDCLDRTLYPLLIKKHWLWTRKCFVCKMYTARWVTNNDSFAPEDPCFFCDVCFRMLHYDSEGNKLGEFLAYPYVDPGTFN
Sequence of SNAPcΔ;Bdp1SANT (Q16533 whole entry, stated change not applied, chain 3 of 4): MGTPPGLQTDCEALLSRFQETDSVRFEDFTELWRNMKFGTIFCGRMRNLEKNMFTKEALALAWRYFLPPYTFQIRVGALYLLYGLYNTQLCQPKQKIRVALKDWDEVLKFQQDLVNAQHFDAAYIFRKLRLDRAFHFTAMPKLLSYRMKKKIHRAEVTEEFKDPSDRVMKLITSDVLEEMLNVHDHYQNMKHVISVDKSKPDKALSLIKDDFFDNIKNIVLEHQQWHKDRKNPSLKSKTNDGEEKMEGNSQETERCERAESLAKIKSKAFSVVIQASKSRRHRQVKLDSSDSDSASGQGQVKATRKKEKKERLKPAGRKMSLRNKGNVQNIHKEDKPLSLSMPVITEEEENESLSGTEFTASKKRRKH
Sequence of SNAPcΔ;Bdp1SANT (O75971 whole entry, stated change not applied, chain 4 of 4): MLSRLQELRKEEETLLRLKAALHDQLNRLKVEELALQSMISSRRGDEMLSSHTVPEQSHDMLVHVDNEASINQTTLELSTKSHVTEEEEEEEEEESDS

[3] = molecular target: T1, TBP (core);Brf2 (62-419);Bdp1SANT; test: X-ray crystallography; 2.7 A; EMSA: 500 mM ammonium acetate, 50 mM HEPES pH 7.9, 10% glycerol, 1 mM TCEP, 21 °C 20 min, diluted twofold (100 mM ammonium acetate, 40% glycerol) before loading; SNAPc EMSA: 500 mM NaCl, 50 mM HEPES pH 7.9, 20% glycerol, 1 mM TCEP, 21 °C; smFRET lifetimes: T78 buffer, 1 mM DTT, room temperature; settings: protein: recombinant;recombinant;recombinant; tags: His-tag cleaved (3C);N-terminal His-tag cleaved (3C);N-terminal His, cleavable; cleaved for crystallization; copies: 1;1;1; 25 bp; template strand S1 has 1 nt 5' and 1 nt 3' overhang
Brf2 (62-419) = molecular target: T3, Brf2 (62-419) (human, UniProt Q9HAW0 62-419); test: crystal structure; Brf2 (62-419), TBP (159-339) and Bdp1SANT with 25 bp of the human U6 promoter; complex at 60 uM, equimolar TBP and Brf2, 1.1 molar excess of Bdp1SANT, 1.2 excess of dsDNA; hanging drop, PEG 8000, KCl, MES pH 6.5, MgCl2; 2.7 Å; settings: both partners purified
T3 construct: Brf2 (TFIIB-related factor II), human, residues 62-419; also called TFIIB-related factor II; source: E. coli Rosetta (DE3)pLysS, co-expressed with TBP, purified in isolation (HisTrap, heparin, 3C cleavage, SEC); not shown: His tag, N-terminal, cleaved
T3 sequence (Q9HAW0 62-419): as the sequence (Q9HAW0 62-419, one chain of several) above

[4] = molecular target: T4, Brf2–TBP complex on U6 promoter DNA (Brf2–TBP–DNA complex) (human, UniProt Q9HAW0 62-419; P20226 159-339); test: as above; settings: both partners purified
T4 construct: Brf2 (TFIIB-related factor II), human, residues 62-419; The complex stands on double-stranded U6 promoter DNA in every experiment (Cy5-labelled U6_2 38-mer in EMSA; 25 bp fragment with overhangs in the crystal); Bdp1 also contacts the DNA; also called TBP–Brf2; source: E. coli Rosetta (DE3)pLysS, each protein purified, assembled with double-stranded U6 promoter DNA; not shown: His tag, …
T4 sequence (Q9HAW0 62-419, one chain of several): as above

TBP (159-339) = molecular target: B4; test: as above; settings: both partners purified
[5] = molecular target: T4, Brf2–TBP complex on U6 promoter DNA …; test: native gel or EMSA; 1.5 pmol Cy5-labelled U6_2 dsDNA, 5 pmol TBP (159-339), 7 pmol Brf2 (62-419), 10 pmol Bdp1 construct in 20 ul; 500 mM ammonium acetate, 50 mM HEPES pH 7.9, 10% glycerol, 1 mM TCEP; 21 °C, 20 min; 4.5% polyacrylamide gel; settings: both partners purified
TBP (core) = TBP (core) (Homo sapiens, UniProt P20226 159-339); test: smFRET; 10 nM TBP; complex lifetime 0.29 s; EMSA: 500 mM ammonium acetate, 50 mM HEPES pH 7.9, 10% glycerol, 1 mM TCEP, 21 °C 20 min, diluted twofold (100 mM ammonium acetate, 40% glycerol) before loading; SNAPc EMSA: 500 mM NaCl, 50 mM HEPES pH 7.9, 20% glycerol, 1 mM TCEP, 21 °C; smFRET lifetimes: T78 buffer, 1 mM DTT, room temperature; settings: protein: recombinant; tags: His-tag cleaved (3C); label: internal ATTO 532 donor and ATTO 647N acceptor; immobilized in TIRF assay; blunt
TBP (core);Brf2 (62-419) [6] = molecular target: T2, TBP (core);Brf2 (62-419); test: smFRET; complex lifetime 381 ± 33 s (heparin trap); EMSA: 500 mM ammonium acetate, 50 mM HEPES pH 7.9, 10% glycerol, 1 mM TCEP, 21 °C 20 min, diluted twofold (100 mM ammonium acetate, 40% glycerol) before loading; SNAPc EMSA: 500 mM NaCl, 50 mM HEPES pH 7.9, 20% glycerol, 1 mM TCEP, 21 °C; smFRET lifetimes: T78 buffer, 1 mM DTT, room temperature; settings: protein: recombinant;recombinant; tags: His-tag cleaved (3C);N-terminal His-tag cleaved (3C); copies: 1;1; label: internal ATTO 532 donor and ATTO 647N acceptor; immobilized in TIRF assay; blunt
[7] = molecular target: T1, TBP (core);Brf2 (62-419);Bdp1SANT; test: smFRET; complex lifetime 547 ± 87 s (heparin trap); EMSA: 500 mM ammonium acetate, 50 mM HEPES pH 7.9, 10% glycerol, 1 mM TCEP, 21 °C 20 min, diluted twofold (100 mM ammonium acetate, 40% glycerol) before loading; SNAPc EMSA: 500 mM NaCl, 50 mM HEPES pH 7.9, 20% glycerol, 1 mM TCEP, 21 °C; smFRET lifetimes: T78 buffer, 1 mM DTT, room temperature; settings: protein: recombinant;recombinant;recombinant; tags: His-tag cleaved (3C);N-terminal His-tag cleaved (3C);N-terminal His, cleavable; cleaved for crystallization; copies: 1;1;1; label: internal ATTO 532 donor and ATTO 647N acceptor; immobilized in TIRF assay; blunt

Binder: B1
binding result [1]: binds
binding result (TBP (core);Brf2 (62-419) [2]): binds

Binder: B2
binding result (SNAPcΔ;Bdp1-WT): binds
binding result (SNAPcΔ;Bdp1SANT): no binding

Binder: B3
binding result [3]: binds

Binder: B4
binding result (Brf2 (62-419)): binds

Binder: B5
binding result (Brf2 (62-419)): binds
binding result [4]: binds
binding result (TBP (159-339)): binds

Binder: B6
binding result [5]: binds

Binder: B7
binding result (TBP (core)): binds
binding result (TBP (core);Brf2 (62-419) [6]): binds
binding result [7]: binds
